Measured values reported in patent US20230251254A1, “METHOD FOR EVALUATING INTERACTION BETWEEN IMMOBILIZED SUBSTANCE IMMOBILIZED DIRECTLY OR INDIRECTLY ON SUBSTRATE AND PROXIMITY-DEPENDENT MODIFYING ENZYMELABELED SUBSTANCE TO BE ANALYZED” (CELLFREE SCIENCES CO.,LTD., priority 2020, published 2023).
One block for each molecule: values may come before it.

Experiments:
CRBN and IKZF1 [1] = target: T1, CRBN and IKZF1 (Homo sapiens, UniProt Q96SW2); settings: compound added to reaction buffer; AirID-fused CRBN
T1 sequence (Q96SW2 whole entry, the tested form may be a part): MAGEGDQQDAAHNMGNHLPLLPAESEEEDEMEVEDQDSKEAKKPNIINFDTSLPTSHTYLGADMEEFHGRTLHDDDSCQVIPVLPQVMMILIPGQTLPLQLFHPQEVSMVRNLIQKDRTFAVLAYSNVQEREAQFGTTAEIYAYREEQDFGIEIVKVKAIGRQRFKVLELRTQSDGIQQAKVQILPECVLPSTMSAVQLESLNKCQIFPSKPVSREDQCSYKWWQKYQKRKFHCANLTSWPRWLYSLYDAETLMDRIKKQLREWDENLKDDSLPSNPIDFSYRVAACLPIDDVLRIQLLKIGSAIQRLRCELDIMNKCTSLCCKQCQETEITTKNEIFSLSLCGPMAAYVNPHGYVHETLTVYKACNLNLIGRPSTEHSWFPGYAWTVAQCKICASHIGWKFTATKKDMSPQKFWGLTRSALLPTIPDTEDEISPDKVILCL
T1 sequence (as listed by the source): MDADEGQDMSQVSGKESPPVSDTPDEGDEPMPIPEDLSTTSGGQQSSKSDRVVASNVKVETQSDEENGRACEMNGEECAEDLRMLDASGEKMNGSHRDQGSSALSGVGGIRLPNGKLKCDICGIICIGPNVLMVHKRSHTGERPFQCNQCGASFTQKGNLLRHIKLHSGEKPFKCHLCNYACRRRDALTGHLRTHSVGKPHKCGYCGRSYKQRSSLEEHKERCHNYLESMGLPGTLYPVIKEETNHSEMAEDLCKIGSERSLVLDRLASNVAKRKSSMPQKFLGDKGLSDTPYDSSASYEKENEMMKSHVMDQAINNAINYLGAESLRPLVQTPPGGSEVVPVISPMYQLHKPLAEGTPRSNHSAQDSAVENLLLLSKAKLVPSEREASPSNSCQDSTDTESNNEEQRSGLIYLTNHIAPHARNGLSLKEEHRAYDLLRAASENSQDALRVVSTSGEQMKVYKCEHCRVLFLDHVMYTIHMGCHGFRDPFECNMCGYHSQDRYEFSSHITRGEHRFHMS
Experimental: (§1) In this Example, an interaction between proteins known to bind to each other, CRBN (SEQ ID NO: 7) and IKZF1 (SEQ ID NO: 6) or SALL4 (SEQ ID NO: 9), was analyzed. […] In view of this, the compound (thalidomide derivative) was added to a buffer to be used for a reaction to analyze how CRBN interacted with IKZF1 or SALL4 in a compound-dependent (binding recruiter) manner. The flow of this Example is illustrated in FIG. 3.
(§2) As a substance to be analyzed (protein), template DNA in which CRBN was fused to AirID and template DNA in which a mutant CRBN (SEQ ID NO: 8) having a mutation introduced into its binding site for the thalidomide derivative was fused to AirID were synthesized. As an immobilized substance (protein), template DNA was synthesized by fusing IKZF1, SALL4, or Venus (control) for comparison to a FLAG™ tag protein and a GST protein.
(§3) The synthesized template DNAs were used to synthesize AirID-fused substances to be analyzed and FLAG™-GST-fused immobilized substances through use of a wheat cell-free expression system.
(§4) The FLAG™-GST-fused immobilized substance (IKZF1, SALL4, or Venus) was bound to glutathione magnetic beads, followed by purification. The magnetic beads after the purification were dispensed and arranged on the wells of the plate, and immobilized by the magnetic force of the magnet plate.
(§5) The AirID-fused substance to be analyzed (CRBN or mutant CRBN) diluted with a reaction buffer containing biotin and ATP was allowed to react with the FLAG™-GST-fused immobilized substance (IKZF1, SALL4, or Venus) on the magnetic beads to perform biotin labeling of the FLAG™-GST-fused immobilized substance.
(§6) In order to remove the AirID-fused substance to be analyzed that was free in the reaction buffer or adsorbed onto the magnetic beads, the reaction buffer was removed and then washing was performed a plurality of times with a washing buffer.

CRBN and IKZF1 [2] = target: CRBN and IKZF1 (Homo sapiens, UniProt Q96SW2, W386A/Y384A); settings: mutant CRBN having a mutation in its binding site for the compound
CRBN and IKZF1 (Homo sapiens, UniProt Q96SW2, W386A/Y384A), sequence (Q96SW2 whole entry Y384A/W386A): as the sequence (Q96SW2 whole entry, the tested form may be a part) above, with Y384A, W386A counted along it
Experimental: as §1, §2, §3, §4, §5, §6

CRBN and SALL4 [3] = target: T2, CRBN and SALL4 (Homo sapiens, UniProt Q96SW2); settings: compound added to reaction buffer; AirID-fused CRBN
T2 sequence (as listed by the source): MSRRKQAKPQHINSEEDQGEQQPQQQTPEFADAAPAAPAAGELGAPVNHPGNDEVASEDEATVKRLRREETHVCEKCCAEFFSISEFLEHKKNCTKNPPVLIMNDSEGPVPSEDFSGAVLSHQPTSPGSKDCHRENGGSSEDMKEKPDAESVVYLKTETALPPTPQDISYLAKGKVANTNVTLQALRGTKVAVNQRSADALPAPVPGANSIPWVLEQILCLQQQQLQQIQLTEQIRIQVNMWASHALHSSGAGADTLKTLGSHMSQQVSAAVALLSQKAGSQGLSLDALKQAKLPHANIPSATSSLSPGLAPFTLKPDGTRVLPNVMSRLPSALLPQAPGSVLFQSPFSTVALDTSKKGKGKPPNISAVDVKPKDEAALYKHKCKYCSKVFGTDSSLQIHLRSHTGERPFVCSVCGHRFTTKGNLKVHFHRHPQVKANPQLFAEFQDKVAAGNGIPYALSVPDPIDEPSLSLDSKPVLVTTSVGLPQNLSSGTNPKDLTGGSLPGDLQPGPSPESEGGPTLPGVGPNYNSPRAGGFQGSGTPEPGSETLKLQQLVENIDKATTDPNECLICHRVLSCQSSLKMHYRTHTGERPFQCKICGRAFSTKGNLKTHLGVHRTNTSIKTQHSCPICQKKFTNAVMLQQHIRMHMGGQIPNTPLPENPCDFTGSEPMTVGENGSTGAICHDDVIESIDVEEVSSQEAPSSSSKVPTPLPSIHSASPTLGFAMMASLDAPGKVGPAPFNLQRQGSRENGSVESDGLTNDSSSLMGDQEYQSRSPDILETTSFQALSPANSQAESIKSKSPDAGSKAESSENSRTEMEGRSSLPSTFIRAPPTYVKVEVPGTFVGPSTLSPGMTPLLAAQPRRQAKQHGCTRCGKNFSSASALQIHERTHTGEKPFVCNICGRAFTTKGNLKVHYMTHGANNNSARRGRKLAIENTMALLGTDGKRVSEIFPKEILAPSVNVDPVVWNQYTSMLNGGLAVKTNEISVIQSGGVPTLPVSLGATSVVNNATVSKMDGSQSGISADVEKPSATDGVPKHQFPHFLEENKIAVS
T2 sequence (Q96SW2 whole entry, the tested form may be a part): as the sequence (Q96SW2 whole entry, the tested form may be a part) above
Experimental: as §1, §2, §3, §4, §5, §6

CRBN and SALL4 [4] = target: CRBN and SALL4 (Homo sapiens, UniProt Q96SW2, W386A/Y384A); settings: mutant CRBN having a mutation in its binding site for the compound
CRBN and SALL4 (Homo sapiens, UniProt Q96SW2, W386A/Y384A), sequence (Q96SW2 whole entry Y384A/W386A): as the sequence (Q96SW2 whole entry, the tested form may be a part) above, with Y384A, W386A counted along it
Experimental: as §1, §2, §3, §4, §5, §6

CRBN and IKZF1 [5] = target: T1, CRBN and IKZF1; settings: stated as known; cited from earlier work
CRBN and SALL4 [6] = target: T2, CRBN and SALL4; settings: stated as known; cited from earlier work
FLAG-GST-fused MDM2 [7] = target: T3, FLAG-GST-fused MDM2 (UniProt P23804 1-489); experiment: proximity-biotinylation bead array, streptavidin-HRP luminescence; labeling 37°C 24 h; exposure 10 min
T3 construct: Immobilized on glutathione magnetic beads on the non-denatured protein array; Order of the parts follows the printed name FLAG-GST; also called FLAG-GST-fused immobilized substance (MDM2); not shown: FLAG tag protein; GST protein (glutathione S-transferase tag)
T3 sequence (P23804 whole entry, the tested form may be a part): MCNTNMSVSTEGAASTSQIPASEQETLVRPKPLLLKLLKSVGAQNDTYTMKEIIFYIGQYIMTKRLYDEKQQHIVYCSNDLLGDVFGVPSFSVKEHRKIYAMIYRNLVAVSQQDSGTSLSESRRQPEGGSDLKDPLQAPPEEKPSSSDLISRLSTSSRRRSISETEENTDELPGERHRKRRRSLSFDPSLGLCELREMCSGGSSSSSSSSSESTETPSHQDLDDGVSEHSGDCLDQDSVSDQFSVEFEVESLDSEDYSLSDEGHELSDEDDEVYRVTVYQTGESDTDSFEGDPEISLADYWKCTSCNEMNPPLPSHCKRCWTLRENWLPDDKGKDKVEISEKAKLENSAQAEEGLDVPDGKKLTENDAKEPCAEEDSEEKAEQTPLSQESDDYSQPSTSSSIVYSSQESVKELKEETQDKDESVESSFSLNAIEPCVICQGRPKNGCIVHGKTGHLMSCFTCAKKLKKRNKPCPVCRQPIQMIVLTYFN

FLAG-GST-fused MDM2 [8] = target: T3, FLAG-GST-fused MDM2; experiment: proximity-biotinylation bead array, streptavidin-HRP luminescence; labeling 26°C 1 h; exposure 3 min; the filing calls the signal on this pair non-specific
FLAG-GST-fused MDM2 [9] = target: T3, FLAG-GST-fused MDM2; experiment: proximity-biotinylation bead array, streptavidin-HRP luminescence; labeling 26°C 3 h; exposure 3 min; the filing calls the signal on this pair non-specific
FLAG-GST-fused MDM2 [10] = target: T3, FLAG-GST-fused MDM2; experiment: proximity-biotinylation bead array, streptavidin-HRP luminescence; labeling 26°C 30 min; exposure 3 min; the filing calls the signal on this pair non-specific
FLAG-GST-fused RelA [11] = target: T4, FLAG-GST-fused RelA (UniProt Q04206 1-551); experiment: proximity-biotinylation bead array, streptavidin-HRP luminescence; labeling 26°C 1 h; exposure 3 min; the filing calls the signal on this pair non-specific
T4 construct: Immobilized on glutathione magnetic beads on the non-denatured protein array; Order of the parts follows the printed name FLAG-GST; also called FLAG-GST-fused immobilized substance (RelA); not shown: FLAG tag protein; GST protein (glutathione S-transferase tag)
T4 sequence (Q04206 other isoform, or with tags, fused parts or gaps): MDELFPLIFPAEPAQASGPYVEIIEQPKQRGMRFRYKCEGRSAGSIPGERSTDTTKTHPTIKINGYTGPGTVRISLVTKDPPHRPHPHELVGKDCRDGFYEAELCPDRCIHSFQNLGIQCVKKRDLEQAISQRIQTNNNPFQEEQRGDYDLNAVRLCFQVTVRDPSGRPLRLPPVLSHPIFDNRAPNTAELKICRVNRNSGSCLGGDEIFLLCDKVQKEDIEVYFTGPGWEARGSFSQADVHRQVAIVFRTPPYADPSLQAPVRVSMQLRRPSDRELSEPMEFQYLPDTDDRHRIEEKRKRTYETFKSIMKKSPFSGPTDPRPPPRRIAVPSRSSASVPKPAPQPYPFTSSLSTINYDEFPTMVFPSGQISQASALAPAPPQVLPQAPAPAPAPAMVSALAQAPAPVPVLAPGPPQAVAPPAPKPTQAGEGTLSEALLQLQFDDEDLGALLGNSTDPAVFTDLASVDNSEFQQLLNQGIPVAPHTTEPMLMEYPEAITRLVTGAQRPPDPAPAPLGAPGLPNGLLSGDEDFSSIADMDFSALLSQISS

FLAG-GST-fused RelA [12] = target: T4, FLAG-GST-fused RelA; experiment: proximity-biotinylation bead array, streptavidin-HRP luminescence; labeling 26°C 3 h; exposure 3 min; the filing calls the signal on this pair non-specific
FLAG-GST-fused RelA [13] = target: T4, FLAG-GST-fused RelA; experiment: proximity-biotinylation bead array, streptavidin-HRP luminescence; labeling 26°C 30 min; exposure 3 min; the filing calls the signal on this pair non-specific
FLAG-GST-fused RelA [14] = target: T4, FLAG-GST-fused RelA; experiment: proximity-biotinylation bead array, streptavidin-HRP luminescence; labeling 37°C 24 h; exposure 10 min
MDM2 = target: T5, MDM2 (Mus musculus, UniProt P23804); experiment: AirID proximity-dependent biotin labeling on non-denatured protein array, TP53 and MDM2 (Example 2); format: binding; settings: AirID-fused TP53; FLAG-GST-MDM2 on magnetic beads; HRP-labeled streptavidin
T5 construct: made in house; host or cells: wheat cell-free protein synthesis
T5 sequence (P23804 whole entry, the tested form may be a part): as the sequence (P23804 whole entry, the tested form may be a part) above
Description: (§7) As a substance to be analyzed, template DNA in which TP53 (SEQ ID NO: 4) or Iκβα (SEQ ID NO: 5) was fused to AirID (SEQ ID NO: 3) was synthesized. As an immobilized substance (target protein), template DNA in which MDM2 (SEQ ID NO: 10), RelA (SEQ ID NO: 11), or any one of 10 kinds of proteins (controls) for comparison was fused to a FLAG™ tag protein and a GST protein was synthesized.
(§8) Thus, a non-denatured protein array was produced.

RelA = target: T6, RelA (Homo sapiens, UniProt Q04206); experiment: AirID proximity-dependent biotin labeling on non-denatured protein array, Iκβα and RelA (Example 2); format: binding; settings: AirID-fused Iκβα; FLAG-GST-RelA on magnetic beads; HRP-labeled streptavidin
T6 construct: made in house; host or cells: wheat cell-free expression system
T6 sequence (Q04206 1-548 isoform Q04206-4): as the sequence (Q04206 other isoform, or with tags, fused parts or gaps) above
Description: as §7, §8

FLAG-GST-fused MDM2 [15] = target: T3, FLAG-GST-fused MDM2; experiment: proximity biotinylation by AirID fusion on bead protein array, streptavidin-HRP luminescence image
Experimental: The washing buffer was removed, and an HRP-labeled streptavidin solution diluted with the reaction buffer was added and allowed to react with the FLAG™-GST-fused immobilized substance on the magnetic beads. In order to remove free streptavidin, the reaction buffer was removed and then washing was performed a plurality of times with a washing buffer. After the removal of the washing buffer, a chemiluminescence reagent was added and subjected to a reaction. The resultant luminescence was detected with LAS4000 (manufactured by GE Healthcare) to provide measurement images.

FLAG-GST-fused MDM2 [16] = target: T3, FLAG-GST-fused MDM2; experiment: proximity-biotinylation bead array, streptavidin-HRP luminescence; labeling 26°C 1 h; exposure 10 min
FLAG-GST-fused RelA [17] = target: T4, FLAG-GST-fused RelA; experiment: as above
FLAG-GST-fused MDM2 [18] = target: T3, FLAG-GST-fused MDM2; experiment: proximity-biotinylation bead array, streptavidin-HRP luminescence; labeling 26°C 3 h; exposure 10 min
FLAG-GST-fused RelA [19] = target: T4, FLAG-GST-fused RelA; experiment: as above
FLAG-GST-fused MDM2 [20] = target: T3, FLAG-GST-fused MDM2; experiment: proximity-biotinylation bead array, streptavidin-HRP luminescence; labeling 26°C 30 min; exposure 10 min
FLAG-GST-fused RelA [21] = target: T4, FLAG-GST-fused RelA; experiment: as above
FLAG-GST-fused MDM2 [22] = target: T3, FLAG-GST-fused MDM2; experiment: proximity-biotinylation bead array, streptavidin-HRP luminescence; labeling 26°C; exposure 10 min

Molecule: Nc1cccc2c1C(=O)N(C1CCC(=O)NC1=O)C2=O (stereo not drawn) [Pomalidomide]
- luminescence intensity of CRBN and IKZF1 (CRBN and IKZF1 [1]): particularly increased
- luminescence intensity of mutant CRBN and IKZF1 (CRBN and IKZF1 [2]): hardly any increase
- luminescence intensity of CRBN and SALL4 (CRBN and SALL4 [3]): particularly increased
- luminescence intensity of mutant CRBN and SALL4 (CRBN and SALL4 [4]): hardly any increase
- effect on binding of CRBN and IKZF1 (CRBN and IKZF1 [5]): enhance their binding
- effect on binding of CRBN and SALL4 (CRBN and SALL4 [6]): enhance their binding

Molecule: BioID-fused Iκβα
- signal value (FLAG-GST-fused MDM2 [7]): 4530

Molecule: TurboID-fused Iκβα
- signal value (FLAG-GST-fused MDM2 [8]): > 65000
- signal value (FLAG-GST-fused MDM2 [9]): > 65000
- signal value (FLAG-GST-fused MDM2 [10]): 7030

Molecule: BioID-fused TP53
- signal value (FLAG-GST-fused RelA [14]): 1860

Molecule: TP53: TP53 (SEQ ID NO: 4), fused to AirID as substance to be analyzed in Example 2
- luminescence (biotin detection) between TP53 and MDM2 (MDM2): recognized

Now from value to molecule:

- signal value (FLAG-GST-fused RelA [11]): > 65000
- signal value (FLAG-GST-fused RelA [12]): > 65000
- signal value (FLAG-GST-fused RelA [13]): 10200
Molecule: TurboID-fused TP53

- luminescence (biotin detection) between Iκβα and RelA (RelA): recognized
- binding result (FLAG-GST-fused MDM2 [15]): no binding
- signal value (FLAG-GST-fused MDM2 [16]): 690
- signal value (FLAG-GST-fused RelA [17]): 28000
- signal value (FLAG-GST-fused MDM2 [18]): 520
- signal value (FLAG-GST-fused RelA [19]): 48000
- signal value (FLAG-GST-fused MDM2 [20]): 370
- signal value (FLAG-GST-fused RelA [21]): 7940
B1: AirID-fused Iκβα (other)
chain: MKDNTVPLTLISILADGEFHSGEQLGEQLGMSRAAINKHIKTLRDWGVDVFRVQGKGYCLPEPIQLLDEEKIRQQLDEGSVTVLPVIDSTNQYLLDRLDELTSGDVCIAEYQQAGRGSRGRKWFSPFGANLYLSMYWRLEQGPAAAMGLSLVIGIVMAETLQKLGADGVRVKWPNDLYLNDRKLAGILVEMTGKTGDAAHIVIGAGINLSMREPETDEVDQSWINLQEAGITIDRNQLAARLIKDLRSALRQFEQQGLAPFLSRWEALDNFINRPVKLIIGDREIHGIARGINEQGALLLEQDGVIKPWIGGEISLRSAMFQAAERPQEWAMEGPRDGLKKERLLDDRHDSGLDSMKDEEYEQMVKELQEIRLEPQEVPRSSEPWKQQLTEDGDSFLHLAIIHEEKALTMEVIRQVKGDLAFLNFQNNLQQTPLHLAVITNQPEIAEALLGAGCDPELRDFRGNTPLHLACEQGCLASVGVLTQSCTTPHLHSILKATNYNGHTCLHLASIHGYLGIVELLVSLGADVNAQEPCNGRTALHLAVDLQNPDLVSLLLKCGADVNRVTYQGYSPYQLTWGRPSTRIQQQLGQLTLENLQMLPESEDEESYDTESEFTEFTEDELPYDDCVFGGQRLTL
notes: Fusion made in a wheat cell-free system; also called AirID-fused substance to be analyzed (Iκβα)

- binding result (FLAG-GST-fused MDM2 [22]): no binding
- signal value (FLAG-GST-fused MDM2 [16]): 190
- signal value (FLAG-GST-fused RelA [17]): 37500
- signal value (FLAG-GST-fused MDM2 [18]): 230
- signal value (FLAG-GST-fused RelA [19]): > 65000
- signal value (FLAG-GST-fused MDM2 [20]): 120
- signal value (FLAG-GST-fused RelA [21]): 10400
B2: AVVA-R118S,Q141R mutant-fused Iκβα (other)
fusion protein: MSEQWSRKREILALLSSGHFVSGEELATQLGISRTAVSKHIAALEEYGVDIYSVKGKGYKLANPISLIDESKLKSAINNRCFYFDEIPSTNGFMLKHAEELKSGDICVAEYQSAGRGSRGRTWVSPYGCHLYFSLYWRFPRGMAQAMGLSLVVACSLVKVLKSFGVDGVGVKWPNDIYLNHKKLAGVLIEMSGQADSECHLVIGIGINMAMSEQQGKKIDQPWSDLSSLTSMPDKTELLIALQKQLKQDLELFEREGLKAFQPRWQEADLFYGKQIKLLMGENQVEGICRGIDEQGAVLLETDDGIQAFIGGEISLRAAMFQAAERPQEWAMEGPRDGLKKERLLDDRHDSGLDSMKDEEYEQMVKELQEIRLEPQEVPRSSEPWKQQLTEDGDSFLHLAIIHEEKALTMEVIRQVKGDLAFLNFQNNLQQTPLHLAVITNQPEIAEALLGAGCDPELRDFRGNTPLHLACEQGCLASVGVLTQSCTTPHLHSILKATNYNGHTCLHLASIHGYLGIVELLVSLGADVNAQEPCNGRTALHLAVDLQNPDLVSLLLKCGADVNRVTYQGYSPYQLTWGRPSTRIQQQLGQLTLENLQMLPESEDEESYDTESEFTEFTEDELPYDDCVFGGQRLTL
